Experimental data reported in paper PMC6099927.

Target: Plasmodium falciparum lactate dehydrogenase (PfLDH) (Plasmodium falciparum) (UniProt Q27743)
Assay: APTEC plate capture assay
Settings: 2x PBS binding buffer (recombinant PfLDH), 1 h, streptavidin plate coated with DNA, PBST (0.1% Tween-20) washes, absorbance 570 nm; blood: 1:1 with PBS 0.5% …

Sequence of Plasmodium falciparum lactate dehydrogenase (PfLDH) (Plasmodium falciparum) (Q27743 whole entry): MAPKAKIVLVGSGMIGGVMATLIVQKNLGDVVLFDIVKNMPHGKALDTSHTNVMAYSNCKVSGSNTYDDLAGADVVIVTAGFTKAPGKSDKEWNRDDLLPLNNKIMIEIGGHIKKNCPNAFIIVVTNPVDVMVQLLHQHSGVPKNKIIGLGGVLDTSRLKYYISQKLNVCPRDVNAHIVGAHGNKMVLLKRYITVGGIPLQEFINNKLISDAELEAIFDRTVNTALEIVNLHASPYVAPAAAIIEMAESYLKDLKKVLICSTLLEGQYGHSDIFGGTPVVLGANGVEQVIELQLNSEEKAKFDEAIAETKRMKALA

Sequence: GCAACAGAGCCCTATTCTGTCTCAGTCCACCGGGTTAGGAAACGCGAGTCAGT / CTGGGCGGTAGAACCATAGTGACCCAGCCGTCTACTTCCCTAACGCCTGCGTGAATAGGGCTCTGTTGC / CTGGGCGGTAGAACCATAGTGACCCAGCCGTCTACTTGATCTCAACTCAGTTACCCGGTGGACTGAGAC / CTGGGCGGTAGAACCATAGTGACCCAGCCGTCTACTTTCATCTGGGGCCTTTACTGACTCGCGTTTCCT / TAAGGCCCCAGATGATAAACCCAGGCCGGCCCT / TCGCTCGACAGAGATACTATTAGTACCAGGCCCGATAGGGCCGGCCTGGGTTT / TCGCAGGCGTTAGGGTTCGGGCCTGGTACTAAT / TACTGAGTTGAGATCTGTATCTCTGTCGAGCGA [prism with three aptamers]
- Kd: 1.38 nM
